We go through one substance from article PMC9226200.

“And” between values parts separate entries of the source, which are not always exact repeats. Equal values may be shown once.

The test concerns the target PKM2 (mouse (endogenous in splenic B cells of C57BL/6J mice)) (UniProt P52480). The test can be described thus: cross-linking; lysates of purified CD19+ splenic B cells from C57BL/6J mice cultured with or without Hcy (100 μmol/L) for 24 h, cross-linked with glutaraldehyde; Western blot for PKM2 oligomer states. Background: A western blot detects proteins with antibodies after separation by electrophoresis.

Sequence of PKM2, P52480 1-531 (enzyme; other documents disagree on this pair) (P52480 whole entry): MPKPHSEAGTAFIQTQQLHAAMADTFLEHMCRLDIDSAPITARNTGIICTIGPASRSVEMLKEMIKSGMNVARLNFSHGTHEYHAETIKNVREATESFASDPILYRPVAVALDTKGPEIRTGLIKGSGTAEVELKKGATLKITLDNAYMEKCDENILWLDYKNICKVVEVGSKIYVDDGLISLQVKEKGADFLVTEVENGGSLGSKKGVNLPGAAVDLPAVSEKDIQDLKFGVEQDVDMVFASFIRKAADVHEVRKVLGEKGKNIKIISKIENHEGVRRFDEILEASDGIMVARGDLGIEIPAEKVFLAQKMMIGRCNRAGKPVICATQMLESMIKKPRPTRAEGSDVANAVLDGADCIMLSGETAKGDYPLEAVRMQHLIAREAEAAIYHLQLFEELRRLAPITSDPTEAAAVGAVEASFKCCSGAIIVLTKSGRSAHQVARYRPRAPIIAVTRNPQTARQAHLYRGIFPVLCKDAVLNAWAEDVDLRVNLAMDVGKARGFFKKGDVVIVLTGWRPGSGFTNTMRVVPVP

On to “PKM2, P52480 1-531 (enzyme; other documents disagree on this pair)”, for which the stoichiometry N is 4 and 2.

By stoichiometry N is commonly meant a count of units in the complex or per binding partner.
